Our source for the collision cross section values is the supplement of paper PMC10598134.

± gives the standard deviation.

The nature of this data set: collision cross section of modified peptide (TIMS, N2, iRT-aligned); higher = larger / more extended gas-phase ion. On the procedure:
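1/K0 was aligned run-wise to spiked iRT peptides and converted to CCS in N2 (Mason-Schamp). Values are the mean of 1-3 technical replicates for the most abundant feature at each charge state.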

Where [1] appears, read: charge state: 2, modification: HexNAc (ST).
Where [2] appears, read: charge state: 3, modification: HexNAc (ST).
The mark [3] stands for this setting: charge state: 2, modification: Formyl.
Setting [4] is: charge state: 2, modification: hydroxyisobutyryl.
The mark [5] stands for this setting: charge state: 3, modification: hydroxyisobutyryl.
Where [6] appears, read: charge state: 3, modification: Trimethyl (K).
[7] abbreviates: charge state: 2, modification: Biotin.
Setting [8] is: charge state: 2, modification: Succinyl.
Setting [9] is: charge state: 3, modification: Succinyl.
Where [10] appears, read: charge state: 2, modification: GlyGly (K).
The mark [11] stands for this setting: charge state: 3, modification: GlyGly (K).
[12] abbreviates: charge state: 2, modification: Citrullination (R).
Where [13] appears, read: charge state: 3, modification: Citrullination (R).
Setting [14] is: charge state: 2, modification: Butyryl.
[15] abbreviates: charge state: 2, modification: Malonyl.
[16] abbreviates: charge state: 2, modification: Trimethyl (K).
Setting [17] is: charge state: 2, modification: Crotonyl.
[18] abbreviates: charge state: 3, modification: Crotonyl.
Where [19] appears, read: charge state: 2, modification: Nitro (Y).
[20] abbreviates: charge state: 3, modification: Nitro (Y).
Setting [21] is: charge state: 2, modification: Acetyl (K).
[22] abbreviates: charge state: 2, modification: Propionyl.
Where [23] appears, read: charge state: 3, modification: Malonyl.
Where [24] appears, read: charge state: 3, modification: Butyryl.
Setting [25] is: charge state: 2, modification: Dimethyl (K).
Setting [26] is: charge state: 3, modification: Dimethyl (K).

“GQDSTIAASEQQVAAR [_GQDS(HexNAc (ST))TIAASEQQVAAR_]”: the collision cross section amounted to 438.46 ± 0.56 Å² under setting [1] and 532.78 ± 0.19 Å² under setting [2].
Under setting [3], “VNVEAPDVNLEGLGGKLK [_VNVEAPDVNLEGLGGK(Formyl)LK_]” returned a collision cross section of 459.19 ± 1.2 Å².
Regarding “ITLSKHQNVQLPR [_ITLSK(hydroxyisobutyryl)HQNVQLPR_]”, the collision cross section under setting [4] is 443.83 ± 0.038 Å² and the collision cross section under setting [5] is 520.86 ± 27 Å².
In turn, “VGIDTPDIDIHGPEGKLK [_VGIDTPDIDIHGPEGK(Trimethyl (K))LK_]” had a collision cross section under setting [6] of 543.29 ± 0.9 Å².
With ASEALLKQLK [_ASEALLK(Biotin)QLK_], the collision cross section under setting [7] came out at 396.36 ± 2.2 Å².
For “ANEKTESSSAQQVAVSR [_ANEK(Succinyl)TESSSAQQVAVSR_]”, the collision cross section reads like this: under setting [8], 443.48 ± 0.35 Å²; under setting [9], 533.43 ± 0.35 Å².
Sequence “IINEPTAAAIAYGLDKK [_IINEPTAAAIAYGLDK(GlyGly (K))K_]” registered a collision cross section under setting [10] of 510.84 ± 1.5 Å² and a collision cross section under setting [11] of 560.44 ± 1.9 Å².
As for “TSAVSSQANSQPPVQVSVK [_TSAVSSQANSQPPVQVS(HexNAc (ST))VK_]”, under setting [1], the collision cross section was determined as 471.02 Å².
As to “RFGGPVHHQAQR [_R(Citrullination (R))FGGPVHHQAQR_]”, the collision cross section was found to be 387.08 ± 0.89 Å² under setting [12] and 477.19 ± 0.94 Å² under setting [13].
As for “ALASIDSKLNQAK [_ALASIDSK(Butyryl)LNQAK_]”, the collision cross section under setting [14] stood at 403.96 ± 0.85 Å².
Sequence VNALKNLQVK [_VNALK(Malonyl)NLQVK_] had a collision cross section under setting [15] of 368.09 ± 0.62 Å².
In the case of “PLPVALQTRLAK [_PLPVALQTR(Citrullination (R))LAK_]”, the collision cross section under setting [12] came to 391.36 ± 0.54 Å².
Regarding “ITGKNQVTATK [_ITGK(Trimethyl (K))NQVTATK_]”, the collision cross section is, setting by setting: under setting [16], 375.05 ± 1.7 Å²; under setting [6], 426.22 Å².
The sequence “LLEEEDSKLK [_LLEEEDSK(Gluratylation)LK_]” showed a collision cross section (charge state: 2, modification: Glutarylation) of 387.79 ± 0.61 Å².
In the case of “LLIVSTTPYSEKDTK [_LLIVSTTPYSEK(Trimethyl (K))DTK_]”, the collision cross section runs as follows: under setting [16], 468.15 ± 1.2 Å²; under setting [6], 501.69 ± 1.8 Å².
“ISPVEESEDVSNK [_ISPVEES(HexNAc (ST))EDVSNK_]” gave a collision cross section under setting [1] of 415.06 ± 0.62 Å².
On to “DYSAPVNFISAGLKK [_DYSAPVNFISAGLK(Crotonyl)K_]”, for which the collision cross section runs as follows: under setting [17], 438.67 ± 0.84 Å²; under setting [18], 525.96 ± 1.3 Å².
With “GPQNATDSYVHK [_GPQNATDSY(Nitro (Y))VHK_]”, the collision cross section is recorded as 386.3 ± 0.94 Å² under setting [19] and 449.51 ± 0.23 Å² under setting [20].
In the case of “VDIDVPDVNIEGPDAKLK [_VDIDVPDVNIEGPDAK(Malonyl)LK_]”, under setting [15], the collision cross section came out at 474.57 Å².
As to LEKTIDDLEEK [_LEK(Acetyl (K))TIDDLEEK_], the collision cross section under setting [21] is reported as 403.37 ± 1 Å².
The sequence “FDDTNPEKEEAK [_FDDTNPEK(Propionyl)EEAK_]” displayed a collision cross section under setting [22] of 396.96 ± 0.65 Å².
Consider “DTGEKLTVAENEAETK [_DTGEK(hydroxyisobutyryl)LTVAENEAETK_]”, for which the collision cross section reads like this: under setting [4], 449.65 ± 0.82 Å²; under setting [5], 520.27 ± 2.8 Å².
The sequence ASAISIKLGSSK [_ASAISIK(Succinyl)LGSSK_] displayed a collision cross section under setting [8] of 372.2 ± 0.24 Å².
On to “LLALSGPGGGRGR [_LLALSGPGGGR(Methyl (R))GR_]”, for which the collision cross section (charge state: 2, modification: Methyl (R)) amounted to 387.94 ± 0.53 Å² and the collision cross section (charge state: 3, modification: Methyl (R)) came out at 446.53 ± 3.2 Å².
The sequence KYEEIDNAPEER [_K(Formyl)YEEIDNAPEER_] had a collision cross section under setting [3] of 405.5 ± 0.74 Å².
For the sequence “DESFLGKLGGTLAR [_DESFLGK(Malonyl)LGGTLAR_]”, the collision cross section under setting [15] worked out at 413.79 ± 1.2 Å² and the collision cross section under setting [23] came out at 487.95 Å².
“IVFSGNLFQHQEDSKK [_IVFSGNLFQHQEDSK(Butyryl)K_]”: the collision cross section is, setting by setting: under setting [14], 504.05 ± 1 Å²; under setting [24], 542.63 ± 1.2 Å².
For the sequence TTEETSKPK [_TTEETSK(Trimethyl (K))PK_], the collision cross section under setting [16] is listed as 342 ± 0.055 Å².
As to “DSRGGGGNFGPGPGSNFR [_DSR(Citrullination (R))GGGGNFGPGPGSNFR_]”, the collision cross section under setting [13] is given as 470.03 ± 5.1 Å².
For the sequence FDDTNPEKEEAK [_FDDTNPEK(Butyryl)EEAK_], the collision cross section by setting is: under setting [14], 399.47 ± 0.85 Å²; under setting [24], 440.77 ± 2 Å².
With “TLQKQSVVYGGK [_TLQK(Dimethyl (K))QSVVYGGK_]”, the collision cross section under setting [25] is 397.97 ± 0.88 Å² and the collision cross section under setting [26] is 459.07 ± 1.6 Å².
As to “SSGPGGQNVNKVNSK [_SSGPGGQNVNK(Butyryl)VNSK_]”, the collision cross section reads like this: under setting [14], 405.84 ± 0.57 Å²; under setting [24], 443.95 ± 2 Å².
As to TTEETSKPK [_TTEETSK(Crotonyl)PK_], the collision cross section under setting [17] was 346.33 ± 11 Å².
In turn, “DKALPLEAEVAPVK [_DK(Malonyl)ALPLEAEVAPVK_]” displayed a collision cross section under setting [15] of 414.83 ± 0.6 Å².
On to AYGELPEHAK [_AY(Phospho (Y))GELPEHAK_], for which the collision cross section is, setting by setting: (charge state: 2, modification: Phospho (Y)) 362.96 ± 0.74 Å²; (charge state: 3, modification: Phospho (Y)) 450.05 Å².
For the sequence “SITHSTVGSKGEK [_SITHSTVGSK(Crotonyl)GEK_]”, the collision cross section worked out at 402.71 ± 8.6 Å² under setting [17] and 442.34 ± 1.6 Å² under setting [18].
As to “IHVQSSSDSSDEPAEKR [_IHVQSSSDSSDEPAEK(Malonyl)R_]”, the collision cross section is, setting by setting: under setting [15], 452 ± 1.6 Å²; under setting [23], 506.71 ± 1.6 Å².
Turning to “GGSAGGRGFFR [_GGSAGGR(Citrullination (R))GFFR_]”, the collision cross section under setting [12] came out at 340.82 ± 0.52 Å².
As to “DYSAPVNFISAGLKK [_DYSAPVNFISAGLK(Trimethyl (K))K_]”, the collision cross section came out at 463.71 ± 1 Å² under setting [16] and 523.24 ± 1.8 Å² under setting [6].
Under setting [22], “DYSSGFGGKYGVQADR [_DYSSGFGGK(Propionyl)YGVQADR_]” returned a collision cross section of 432.72 Å².
For the sequence “PGGEGPQCEKTTDVK [_PGGEGPQCEK(Succinyl)TTDVK_]”, the collision cross section under setting [8] is recorded as 437.41 ± 1.1 Å².
Turning to “FGVEAFSDCLR [_FGVEAFS(HexNAc (ST))DCLR_]”, the collision cross section under setting [1] worked out at 398.33 ± 0.63 Å².
On to LGSPSGKTGTCR [_LGSPSGK(Malonyl)TGTCR_], for which the collision cross section under setting [15] is on record as 365.24 ± 0.013 Å².
IGNSYFKEEK [_IGNSYFK(Propionyl)EEK_] registered a collision cross section under setting [22] of 375.51 ± 0.65 Å².
The same measure, in the same setting: then SDDESSQKDIK [_SDDESSQK(Propionyl)DIK_], with 377.44 ± 0.33 Å².
Regarding “GTISAPGKVVTAAAQAK [_GTISAPGK(Dimethyl (K))VVTAAAQAK_]”, the collision cross section worked out at 470.82 ± 0.68 Å² under setting [25] and 493.04 ± 1.7 Å² under setting [26].
In turn, “TSSEASVSSSVAK [_T(HexNAc (ST))SSEASVSSSVAK_]” returned a collision cross section under setting [1] of 394.41 ± 0.76 Å².
In turn, “IVSGKDYNVTANSK [_IVSGK(Formyl)DYNVTANSK_]” gave a collision cross section under setting [3] of 405.86 ± 0.56 Å².
In turn, GETASKLQSEISR [_GETASK(Biotin)LQSEISR_] displayed a collision cross section under setting [7] of 422.42 ± 2 Å² and a collision cross section (charge state: 3, modification: Biotin) of 475.24 ± 0.34 Å².
“PASGAGAGAGAGKR [_PASGAGAGAGAGK(Malonyl)R_]”: the collision cross section under setting [15] came to 352.42 ± 0.026 Å².
“YEEIVKEVSTYIK [_YEEIVK(hydroxyisobutyryl)EVSTYIK_]” came in with a collision cross section under setting [4] of 436.97 ± 5 Å².
As for LSEHATAPTR [_LSEHATAPT(HexNAc (ST))R_], the collision cross section runs as follows: under setting [1], 370.75 ± 0.68 Å²; under setting [2], 450.64 ± 0.17 Å².
Turning to DVNAAIAAIKTK [_DVNAAIAAIK(Biotin)TK_], the collision cross section under setting [7] was found to be 423.85 Å².
“SLEEEGAAHSGKR [_SLEEEGAAHSGK(Acetyl (K))R_]”: the collision cross section by setting is: under setting [21], 412.49 ± 2.4 Å²; (charge state: 3, modification: Acetyl (K)) 476.34 ± 2.4 Å².
Consider “GTVPDDAVEALADSLGKK [_GTVPDDAVEALADSLGK(Succinyl)K_]”, for which the collision cross section is 459.53 ± 1.1 Å² under setting [8] and 536.91 ± 2.2 Å² under setting [9].
On to THLAPYSDELR [_THLAPY(Nitro (Y))SDELR_], for which the collision cross section was found to be 377.13 ± 2.5 Å² under setting [19] and 453.98 ± 1.8 Å² under setting [20].
In the case of “YEQEHAAIQDKLFQVAK [_YEQEHAAIQDK(Butyryl)LFQVAK_]”, the collision cross section under setting [24] is recorded as 517.33 ± 1 Å².
As for “DYSSGFGGKYGVQADR [_DYSSGFGGK(GlyGly (K))YGVQADR_]”, the collision cross section is listed as 440.03 ± 1.4 Å² under setting [10] and 489.79 ± 1.3 Å² under setting [11].
Under setting [13], “PSIHGGSGGRGVSVSSAR [_PSIHGGSGGR(Citrullination (R))GVSVSSAR_]” yielded a collision cross section of 486.3 ± 5 Å².
For GGPGSTLSFVGKR [_GGPGSTLSFVGK(Formyl)R_], under setting [3], the collision cross section was found to be 378.65 ± 0.9 Å².
